Reference: patent US20260045319A1 (UNIVERSITY COURT OF THE UNIVERSITY OF ST ANDREWS, published 2026)

Biological target: the molecule itself
Experiment: size exclusion chromatography on a column calibrated with protein standards; self-association

B1: Dsg407 from Cyanophage Syn10 GenBank: AGH56623.1 (enzyme)
chain: MKIESVAIVGGGSSGWMTAAALSKLCPQLEIALIEDPNIKTVGVGESTLGHFNKFLHLLDLKDEDWMPACNATYKNSIRFTNFREGKGEVFEYPFGPSLDVSFFSQTDGINTWGKLANKYPEDFPPETFARFVNSNTYLAEHNRLTRNKDNKIPNFNFDWDTAYHIDAELFGQYLKEKIALPNGVKHIQGKVTGYQKESPNNHNFKYIILDQETAIFADLYIDCTGFKSLLLGEFMGEAFSPFSKKLANDKAMATRIPYENREEEMHNVTDCHAMKNGWVWNIPLWNRIGTGYCYSSRFVSKDDAEAEFREHLGERGKDAKIFHIDIGHGKRTRAWVNNCVGIGLSYGFIEPLESTGLLTTHENIENLVYLINQRDGYVTQAERDGFNYTCDHQIDSFSDFVAMHYAYSMRTDTPYWKWCTQMCNYMPESMGPHRQKQSTWQDLSTDTIGLNTWHINHNGISFIIAGHGLRPQSYDKLSEVLLKRNNESDYYYEDIRKDWLKHYESMVEYVKTLPTHYEFLRDEIYGSAE
notes: also called hypothetical protein CPUG_00131; viral halogenase Dsg407
**Q.** Does B1 bind?
**A.** Result: binds
